Consider 15 substances from US6506732B1, “Enzymatic hydrolysate of milk proteins” (Universite Laval, priority 1999, dated 2003).

The nature of this data set: Hydrophobicity of peptides of subfraction SF4. The conditions noted are these: single peptides of subfraction SF4. Format: physicochemical. As for the experimental part:
Further separation of the third fraction (F3) on preparative High Pressure Liquid Chromatography (HPLC) using TSK G2000 SW column and a 5 mM ammonium acetate buffer mobile phase adjusted to pH 6.5 gives five subfractions (SF1 to SF5). Composition of subfraction four (SF4), obtained by RP-HPLC using C-18™ column, containing fifteen peptides having average molecular weight of 900 daltons (200 to 1400 daltons) and average hydrophobicity of 11.7 Kcal/mole (5 to 20 Kcal/mole) is presented in Table 2.
Turning to “VLVL (Peptide from enzymatic hydrolysate of milk proteins) [β-Lactoglobulin 92-95, peptide of SF4]”, the Hydrophobicity worked out at 8.2 kcal/mol.

Turning to “IPIQY (Peptide from enzymatic hydrolysate of milk proteins) [Casein κ 26-30, peptide of SF4]”, the Hydrophobicity stood at 11.3 kcal/mol.

For “VLPVPQK (Peptide from enzymatic hydrolysate of milk proteins) [Casein β 170-176, peptide of SF4]”, the Hydrophobicity is 12.3 kcal/mol.

On to “YL: Casein α-s1 91-92, peptide of SF4 (UniProt P02662 106-107, looked up, fragment)”, for which the Hydrophobicity is 5.3 kcal/mol.

Take “VPLGTQY (Peptide from enzymatic hydrolysate of milk proteins) [Casein α-s1 167-173, peptide of SF4]”: the Hydrophobicity stood at 9.9 kcal/mol.

“SPAQILQWQVL (Peptide from enzymatic hydrolysate of milk proteins) [Casein κ 69-79, peptide of SF4]” came in with a Hydrophobicity of 15.5 kcal/mol.

Substance “LLY (UniProt P02666 206-208, looked up, fragment) [Casein β 191-193, peptide of SF4]” had a Hydrophobicity of 7.7 kcal/mol.

Turning to “QGPIVLNPW (Peptide from enzymatic hydrolysate of milk proteins) [Casein α-s2 101-109, peptide of SF4]”, the Hydrophobicity was found to be 15.1 kcal/mol.

“LQSW (Peptide from enzymatic hydrolysate of milk proteins) [Casein β 140-143, peptide of SF4]” returned a Hydrophobicity of 5.3 kcal/mol.

“ALPQYL (Peptide from enzymatic hydrolysate of milk proteins) [Casein α-s2 175-180, peptide of SF4]” registered a Hydrophobicity of 10.9 kcal/mol.

Consider “YVPLGTQY (Peptide from enzymatic hydrolysate of milk proteins) [Casein α-s1 166-173, peptide of SF4]”, for which the Hydrophobicity was found to be 12.7 kcal/mol.

In turn, “LYQGPIVL (Peptide from enzymatic hydrolysate of milk proteins) [Casein α-s2 99-106, peptide of SF4]” gave a Hydrophobicity of 17.7 kcal/mol.

In turn, “LYQEPVL (Peptide from enzymatic hydrolysate of milk proteins) [Casein β 192-198, peptide of SF4]” displayed a Hydrophobicity of 9.3 kcal/mol.

In the case of “INNQFLPYPY (Peptide from enzymatic hydrolysate of milk proteins) [Casein κ 51-60, peptide of SF4]”, the Hydrophobicity worked out at 19.9 kcal/mol.

Substance “YGLNYYQQKPVA (Peptide from enzymatic hydrolysate of milk proteins) [Casein κ 38-49, peptide of SF4]” came in with a Hydrophobicity of 14.4 kcal/mol.
